Test results: the nanobody polyreactivity screen of Harvey et al. (2022)

Assay: yeast display, Sf9 membrane polyspecificity reagent, FACS + sequencing; frameworks hold sequencing errors
Method in brief: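 Galactose induction of a Saccharomyces cerevisiae BJ5465 synthetic nanobody display library ran 36–48 hours. The cells were then stained for 1 hour at 4 °C with 10% biotinylated, detergent-solubilized Sf9 membrane reagent, pulled down on streptavidin microbeads and FACS-sorted into low and high (top ~1%) gates on expression and reagent-binding fluorescence. Labels for polyreactivity follow the gate of origin.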

Row | Sequence | polyreactivity (PSR sort gate)
1 | QVQLVESGGGLVQAGGSLRLSCAASGLTFVGNAMGWYRQAPGKERELVASITIGTSTYYADSVKGRFTISRDNAKNTVYLQMNRLKPEDTAVYYCAAEEVFQVYGLALIYDYWGQGTQVTVSS | high polyreactivity
2 | QVQLVESGGGLVQAGGSLRLSCAASGRIFGVYAMGWYRQAPGKERELVAAIDSSDGSTYYADSVKGRFTISRDNAKNTVYLQMNSLKPEDTAVYYCAADTPAAVYGYDYWGQGTQVTVSS | low polyreactivity
3 | QVQLVESGGGLVQAGGSLRLSCAASGSTLDPNVMGWYRQAPGKEREWVAAITTGGSTYYADSVKGRFTFSRDNAKNTVYLQLYSLKPEDTAFYYCNKDIGWLAHSRIWLWYDYWGQGTQVTVAS | low polyreactivity
4 | QVQLVESGGGLVQAGGSLRLSCAASGITFRTYAMGWYRQAPGKERELVAAISSSGGSTYYADSVKGRFTISRDNAKNTVYLQMNSLKPADTAVYYCAAEWIADLSSPVWYDYWGQGTQVTVSS | high polyreactivity
5 | QVQLVESGGGLVQAGGSLRLSCAASGNTFDGNAMGWYRQAPGQERELVAAINYSGASTSYADSVKGRFTISRDNAKNTVYLQMNSLKREDTAVYYCAADYPPLYRKYDYWGHGTQVTVSS | low polyreactivity
6 | QVQLVDSGGGLVQAGGSLRLSCAASGRTFDVYTMGWYRQAPGKERELVAAINGGGSTYYADSVKGRFTISRDNAKNTVYLQMNTLKPEDTAVYYCAAKLRAGRSSYYWGQGTQVTVSS | high polyreactivity
7 | QVQLVESGGGLVQAGGSLRLSCAASGRIFADYAMGWNRHAPGKQRELVAAITWSGDRTYYADSVKGRFTISRDNAKNTVYLQMNSLKPEDTAVYYCAARARLRRYNYWGQGTQVTVSS | high polyreactivity
8 | QVQLVESGGGLVQAGGSLRLSCAASGFTFNSYAMGWYRQAPGKERELLAAISRIGGITYYADSVKGRFTISRDNAKNTVYLQMNSLKPEDTAVYYCNTASVYVYTGRYDYWGQGTQVTVSS | high polyreactivity
9 | QDQLVESGGGLVQAGGSLRLSCAASGSIFFINAMGWYRQAPGKERELVAAITYSGGSTYYADSVKGRFTISRDNAKYTVYLQMNSLKPEDTAVYYCAADQYSFLPWIAWLLDDYWGQGTQVTVSS | low polyreactivity
10 | QVQLVESGGGLVQAGGSLRLSCAASGFTLFGYAMGWYRQAPGKERELVAAITSGDGRTYYADSVKGRFTISRDNAKNTVYLQMNSLKPEDTAVYYCAATRYSSYYYVRHDHWGQGTQVTVSS | low polyreactivity
11 | QVQLVESGGGLVQAGGSLRLSCAASGNTFEYYAMGWYRQAPGKERELVAAITSGGSTNYADSVKGRFTISRDNAKNTVYYQMNSLKPEDTAVYYCAADQWGYEYDYWGQGTQVTVSS | low polyreactivity
12 | QVQLVESGGGIVQAGGSLRLSCAASGLTFVNYAMGSYRQAPGKERELVAAITVNGGRTYYADSVKGRFTISRDNAKNTVYLQMFSLKPEDTAVYFCAAVYYRHGYTYSSDYWGQGTQVTVSS | high polyreactivity
13 | QDQLVESGGGLDQAGGSLRLSCAASGSTFPGYAMGWYRQAPGKERELVASIYTGGSTYYADSVKGRFTISRDNAKNTVYLQMNSLKPEDTAVYYCAADSYNVSSLLYYWGQGTQVTVSS | low polyreactivity
14 | QVQLVESGGGLVQAGGSLRLSCAAYGRTLGYYAMGWYRPAPGQERELVAAITGSDGSTYADSVKGRFTISRDNAKNTVYLQMNSLKPEDTAVYYCNSKNEHGSLGFDYWGQGTQVTVSS | high polyreactivity
15 | QVQLVESGGGLVQAGGRLRLSCAASGRTFRPYALGWYRQPPVKERELVAAIDSSGTSTYYADSVKGRFTISRDNAKNTVYLQMNSLKPEDTAVYDCAQASPDHWYSRYDYWGQGTQVTVSS | low polyreactivity
16 | QVQLVESGGGLVQAGGSLRLSCAASGRTFHYYTMGWYRQAPGKERELVAAISQSGGRTYYADSVKGRFTISRDNAKNTVYLQMNSLKPEDTAVYYCAAVSWRVISDYRIVGYDYWGQGTQVTVSS | low polyreactivity

Row | Sequence | polyreactivity (PSR sort gate)
17 | QVQLVESGGGLVHAGGSLRLSCAASGRTFWTYAMGWYRQAPGKERELVAAISSGGSTYYADSVKGRFTISRDNAKNTVYLQMNSLKPEDTAVYYCATRVYGGYGYWGQGTQVTVSS | high polyreactivity
18 | QVQLVESGGGLVQAGGSLRLSCAASGSIFDAYAMGWYRQAPGKERELVAAITTGGGSTYYADSVMGRFTISRDNAKNTVYLQMNSLKPEDTAVYYCARDYGKYKGYYWGQGTQVTVSS | low polyreactivity
19 | QVQLQESGGGLVQAGGSLRLSSAASGTIFRFRYMGWHRQAPGKERELVAGINGGTTTYYADSVIGRFTISRDNAKNTVYLQMNSLKPDDTAVYNCAAGASRLTYYDYWGQGTQVTVSS | low polyreactivity
20 | QVQLVESGGGLVQAGGSLRLSCAASGSIFRYYAMGWYRQAPGKERELVARISWRAGSTYADSVKGRFTISRDNAKNTVYLQMNSLKPEDTAVYYCNADAHKYSWVGTSEYEYWGQGTQVTVSS | high polyreactivity
21 | QVHLVESGGGLVQAGGSLRLSCAASGSTIDINAMGWYRQAPGKERELVAAISSGGITNYADSVKGRFTISRDNAKNTVYLQMNSLKPEDSAVYYCATQTYTFRWFGSPGWFDYWGQGTQVTVSS | low polyreactivity
22 | QVQLVESGGGLVQAGGSLRLSCAASGRIFYRYAMGWYRPAPGKERELVAAIRYSGGRTYYADSVKGRFTISRDNAKNTVYLQMISLKPEDTAVYYCAADGQWYYAPFRGGDYENDYWGQGTQVTVSS | low polyreactivity
23 | QVQLVESGGGLVQAGGSLRLSCAASGLIFGRYAMGWYRQAPGKERELVAAINRNGGSTYYADSVKGRFTISRDNAKNTVYLQMNSLKPEDTAVYYCAAQYRSSRGHYDYWGQGTQVTVSS | high polyreactivity
24 | QVHLVESGGGLVQAGGSLRLSCAASGFTFDAYAMGWYRQAPGKERELVAAITRRSGSTYYADSVKGRFTISRDNAKNTVYLQMNSLKPEDTAVYYCAAVSVHRLGSTFGYWGQGTQVTVSS | high polyreactivity
25 | QVQLVESGGGLVQAGGSLRLSCAASGRIFPTNAMGWYRQAPGKERVFVAAITWGGGSTYYAVSVKGRFTISRDNAKNTVYLQMNSLKPEDTAVYYCAATGHIVFFRSYDYGYWGQGTQVTVSS | low polyreactivity
26 | QVQLVESGGGLVQAGGSLRLSSAASGRTLIWYTMGWYRPAPGKERELVAAITSGGSTYYADSVKGRFTISRDNAKNTVYLQMNSLKPEDTAVYYCNARSAFWGWGYGSYDYWGQGTQVTVSS | low polyreactivity
27 | QVQLVESGGGLVLAGGSLRLSCAASGSISTNYAMGWYRQAPGKERELVAAISDSSGSTYYADSVKGRFTISRDNAKNIVYLQMNSLKPEDTAVYYCNADSQGGRDVNYDYEYYYWGQGTQVTVSS | low polyreactivity
28 | QVQLVESGGGLVQAGGSLRLSCAASGFISFAYAMAWYRQAPGKERELVAGISRSGDSTYYADSVKGRFTISRDNAKNTVYLQMNSLKPEDTAVYYCAARQVVWFDYTTAQVGSYKVNYWGQGTQVTVSS | low polyreactivity
29 | QVQLVESGGGLVQAGGSLRLSCAASGLIFVDNAMGWYRPAPGKEREVVAAIDSGGSTNYADSVKGRFTISRDNAKNTVYLQMNSLKPEDTAVYYCAADWIYAPWYYQESVEYYYWGQGTQVTVSS | low polyreactivity
30 | QVQLVESGGGLVQAGGSLRLSCAASGFIFRRYAMGWYRQAPGKERELVAGISNRGGRTYYADSVKGRFTISRDNAKNTVYLQMNSLKPEDTAVYYCAADQKSGYRVSRYYVFYDYWGQGTQVTVSS | high polyreactivity
31 | QVQLVESGGGLVQAGGSLRLSCAASGFIFRRNAMGWYRQAPGKERELVAAISTRGGITYYADSVKGRFTISRDNAKNTVYLQMNSLKPDDTAVYYCAVVFVWGWPGYYWGQGTQVTVSS | high polyreactivity
